Test results taken from patent US20170022287A1 (Chugai, published 2017).

T1: mouse Fcγ receptor III extracellular domain with C-terminal His tag (mouse, UniProt P08508 31-215)
T1 construct: extracellular domain; also called mFcγRIII; not shown: His tag at the C terminus
T1 sequence (looked up): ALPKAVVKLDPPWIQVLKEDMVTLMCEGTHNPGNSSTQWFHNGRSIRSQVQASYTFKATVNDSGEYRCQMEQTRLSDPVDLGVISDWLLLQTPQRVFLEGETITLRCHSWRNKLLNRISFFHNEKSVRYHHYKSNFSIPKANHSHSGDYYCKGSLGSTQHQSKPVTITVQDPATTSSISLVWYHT

T2: mouse Fcγ receptor II extracellular domain with C-terminal His tag (mouse, UniProt P08101 30-210)
T2 construct: extracellular domain; also called mFcγRII; mFcgRII; not shown: His tag at the C terminus
T2 sequence (looked up): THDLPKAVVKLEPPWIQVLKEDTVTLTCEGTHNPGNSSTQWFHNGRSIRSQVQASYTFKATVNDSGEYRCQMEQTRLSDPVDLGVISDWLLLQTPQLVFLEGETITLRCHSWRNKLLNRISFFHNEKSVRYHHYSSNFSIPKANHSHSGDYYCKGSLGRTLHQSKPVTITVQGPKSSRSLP


Experiments:
[1] = target: T1, mouse Fcγ receptor III extracellular …; test: SPR (Biacore); against naturally-occurring mIgG1 (H237-mIgG1/MRAL-k0)
Procedure: (§1) The interaction between each modified antibody and the Fcγ receptor prepared as mentioned above was analyzed using Biacore T100 (GE Healthcare), Biacore T200 (GE Healthcare), Biacore A100, and Biacore 4000. The running buffer used was HBS-EP+(GE Healthcare) and the measurement temperature was set to 25° C. The chip used was: a Series S Sensor Chip CM5 (GE Healthcare) or Series S Sensor Chip CM4 (GE Healthcare) to which Protein L (ACTIGEN or BioVision) was immobilized by the amine coupling method. Antibodies of interest were captured onto these sensor chips, and mFcγR diluted with the running buffer was allowed to interact with them. The amount bound by the antibodies was measured and compared between the antibodies. However, since the amount of mFcγR bound depends on the amount of the captured antibody, the comparison was carried out on corrected values obtained by dividing the amount of bound mFcγR by the amount of each antibody captured. Furthermore, 10 mM glycine-HCl, pH 1.5 was reacted to wash out the captured antibody from the sensor chips, and the sensor chip was regenerated and used repeatedly. Kinetic analyses for calculating the KD values of each altered antibody to FcγR were performed according to the method below. […] From those values, the dissociation constant KD (mol/L) was determined.

[2] = target: T2, mouse Fcγ receptor II extracellular …; test: as above
Procedure: as §1

[3] = target: T1, mouse Fcγ receptor III extracellular …; test: SPR (Biacore) kinetics, antibody captured on Protein L, mFcγR as analyte, 1:1 Langmuir model
Procedure: (§2) The ion exchange column chromatography of step 1 was carried out using Q Sepharose HP for mFcγRI, using SP Sepharose FF for mFcγRII and mFcγRIV, and using SP Sepharose HP for mFcγRIII. While the solvent used in step 3 and the subsequent step was D-PBS(−), D-PBS(−) containing 0.1 M Arginine was used for mFcγRIII. The absorbance at 280 nm was measured for the purified proteins using a spectrophotometer. […] The interaction between each modified antibody and the Fcγ receptor prepared as mentioned above was analyzed using Biacore T100 (GE Healthcare), Biacore T200 (GE Healthcare), Biacore A100, and Biacore 4000. The running buffer used was HBS-EP+(GE Healthcare) and the measurement temperature was set to 25° C. The chip used was: a Series S Sensor Chip CM5 (GE Healthcare) or Series S Sensor Chip CM4 (GE Healthcare) to which Protein L (ACTIGEN or BioVision) was immobilized by the amine coupling method. Antibodies of interest were captured onto these sensor chips, and mFcγR diluted with the running buffer was allowed to interact with them. The amount bound by the antibodies was measured and compared between the antibodies. However, since the amount of mFcγR bound depends on the amount of the captured antibody, the comparison was carried out on corrected values obtained by dividing the amount of bound mFcγR by the amount of each antibody captured. Furthermore, 10 mM glycine-HCl, pH 1.5 was reacted to wash out the captured antibody from the sensor chips, and the sensor chip was regenerated and used repeatedly. Kinetic analyses for calculating the KD values of each altered antibody to FcγR were performed according to the method below. First, antibodies of interest were captured onto the above-mentioned sensor chips, and mFcγR diluted with the running buffer was allowed to interact with them. […] From those values, the dissociation constant KD (mol/L) was determined.

[4] = target: T2, mouse Fcγ receptor II extracellular …; test: as above
Procedure: as §2

CRD1 [5] = target: T3, CRD1; test: ELISA, coated CD137-Fc protein 2 µg/mL, antibody 10 or 5 µg/mL; absorbance 620 nm divided by that of the uncoated well
T3 construct: also called fragmented human CD137-Fc fusion protein CRD1

CRD1-2 [6] = target: T4, CRD1-2; test: as above
T4 construct: also called fragmented human CD137-Fc fusion protein CRD1-2

CRD2-4 [7] = target: T5, CRD2-4; test: as above
T5 construct: also called fragmented human CD137-Fc fusion protein CRD2-4

[8] = target: full-length human CD137-Fc fusion protein (human); test: as above
CRD2-3 [9] = target: T6, CRD2-3; test: as above
T6 construct: also called fragmented human CD137-Fc fusion protein CRD2-3

CRD3-4 [10] = target: T7, CRD3-4; test: as above
T7 construct: also called fragmented human CD137-Fc fusion protein CRD3-4

CRD1-3 [11] = target: T8, CRD1-3; test: as above
T8 construct: also called fragmented human CD137-Fc fusion protein CRD1-3

CRD1 [12] = target: T3, CRD1; test: ELISA, coated CD137-Fc protein 2 µg/mL, antibody 10 or 5 µg/mL, absorbance 620 nm; Non (uncoated well) 0.049
CRD1-2 [13] = target: T4, CRD1-2; test: as above
CRD2-4 [14] = target: T5, CRD2-4; test: as above
[15] = target: full-length human CD137-Fc fusion protein (human); test: as above
CRD2-3 [16] = target: T6, CRD2-3; test: as above
CRD3-4 [17] = target: T7, CRD3-4; test: as above
CRD1-3 [18] = target: T8, CRD1-3; test: as above

T3 sequence (chain, as listed by the source limits assumed): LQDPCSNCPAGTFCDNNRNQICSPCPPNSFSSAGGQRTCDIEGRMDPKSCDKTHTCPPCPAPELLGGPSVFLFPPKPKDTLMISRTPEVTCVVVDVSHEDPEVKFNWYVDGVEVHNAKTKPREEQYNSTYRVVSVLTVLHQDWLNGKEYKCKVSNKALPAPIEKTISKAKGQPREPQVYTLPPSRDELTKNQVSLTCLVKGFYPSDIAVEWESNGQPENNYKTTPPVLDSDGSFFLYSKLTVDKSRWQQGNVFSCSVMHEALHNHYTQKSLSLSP
T5 sequence (chain, as listed by the source limits assumed): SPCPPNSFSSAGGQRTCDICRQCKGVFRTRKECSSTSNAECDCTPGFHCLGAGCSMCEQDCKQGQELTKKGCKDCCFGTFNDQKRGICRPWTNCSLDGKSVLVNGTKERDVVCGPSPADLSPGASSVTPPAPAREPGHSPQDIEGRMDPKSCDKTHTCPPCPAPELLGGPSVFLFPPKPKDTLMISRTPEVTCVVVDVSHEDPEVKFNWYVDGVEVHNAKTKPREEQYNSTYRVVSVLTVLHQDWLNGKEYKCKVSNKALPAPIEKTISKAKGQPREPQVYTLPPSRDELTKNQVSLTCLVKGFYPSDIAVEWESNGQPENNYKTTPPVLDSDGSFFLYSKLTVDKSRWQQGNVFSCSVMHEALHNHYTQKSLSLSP
T6 sequence (chain, as listed by the source limits assumed): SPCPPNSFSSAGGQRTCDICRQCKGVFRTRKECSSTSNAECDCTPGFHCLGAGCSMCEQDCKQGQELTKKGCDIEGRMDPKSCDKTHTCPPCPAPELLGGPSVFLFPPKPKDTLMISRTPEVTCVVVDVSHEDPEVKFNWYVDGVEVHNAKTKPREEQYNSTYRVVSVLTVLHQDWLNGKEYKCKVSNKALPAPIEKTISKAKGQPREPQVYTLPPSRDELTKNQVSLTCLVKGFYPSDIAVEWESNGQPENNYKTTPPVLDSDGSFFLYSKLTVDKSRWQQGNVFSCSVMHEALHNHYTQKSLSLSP
T4 sequence (chain, as listed by the source limits assumed): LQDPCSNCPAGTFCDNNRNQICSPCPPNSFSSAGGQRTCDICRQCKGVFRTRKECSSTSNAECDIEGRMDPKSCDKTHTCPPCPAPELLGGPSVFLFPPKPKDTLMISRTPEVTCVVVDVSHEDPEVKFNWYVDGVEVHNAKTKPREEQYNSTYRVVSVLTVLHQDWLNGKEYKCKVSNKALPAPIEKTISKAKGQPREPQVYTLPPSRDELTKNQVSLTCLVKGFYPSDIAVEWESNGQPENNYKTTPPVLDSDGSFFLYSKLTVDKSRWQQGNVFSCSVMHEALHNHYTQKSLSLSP
Sequence of full-length human CD137-Fc fusion protein (human) (chain, as listed by the source limits assumed): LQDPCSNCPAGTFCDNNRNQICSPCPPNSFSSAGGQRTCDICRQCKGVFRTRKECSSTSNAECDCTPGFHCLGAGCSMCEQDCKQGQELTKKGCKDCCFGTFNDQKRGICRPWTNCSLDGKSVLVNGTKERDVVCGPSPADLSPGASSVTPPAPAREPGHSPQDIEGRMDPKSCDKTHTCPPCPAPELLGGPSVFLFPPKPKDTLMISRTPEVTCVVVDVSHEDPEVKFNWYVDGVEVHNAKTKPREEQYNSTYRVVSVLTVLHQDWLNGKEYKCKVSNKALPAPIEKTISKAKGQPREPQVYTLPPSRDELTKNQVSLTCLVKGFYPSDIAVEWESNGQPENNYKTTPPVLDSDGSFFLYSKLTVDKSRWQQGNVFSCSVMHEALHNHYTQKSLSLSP
T7 sequence (chain, as listed by the source limits assumed): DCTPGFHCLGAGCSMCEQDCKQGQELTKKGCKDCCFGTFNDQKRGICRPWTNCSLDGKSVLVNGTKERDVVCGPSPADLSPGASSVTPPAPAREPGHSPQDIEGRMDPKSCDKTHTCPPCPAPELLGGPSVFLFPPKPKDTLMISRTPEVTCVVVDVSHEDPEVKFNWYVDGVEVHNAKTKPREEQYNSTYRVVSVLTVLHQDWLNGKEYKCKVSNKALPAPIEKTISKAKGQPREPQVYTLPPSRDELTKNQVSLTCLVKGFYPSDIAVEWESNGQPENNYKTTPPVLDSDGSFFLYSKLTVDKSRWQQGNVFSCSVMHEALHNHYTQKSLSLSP
T8 sequence (chain, as listed by the source limits assumed): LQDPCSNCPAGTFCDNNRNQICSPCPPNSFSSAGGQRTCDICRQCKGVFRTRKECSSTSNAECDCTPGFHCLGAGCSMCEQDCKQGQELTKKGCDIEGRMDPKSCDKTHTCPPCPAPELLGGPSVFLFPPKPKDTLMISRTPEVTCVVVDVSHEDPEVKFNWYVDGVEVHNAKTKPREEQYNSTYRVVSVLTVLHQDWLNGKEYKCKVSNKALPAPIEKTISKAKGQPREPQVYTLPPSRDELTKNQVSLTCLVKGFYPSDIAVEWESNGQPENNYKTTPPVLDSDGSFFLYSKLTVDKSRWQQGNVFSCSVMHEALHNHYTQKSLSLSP

Row | Relative binding activity [1] | Relative binding activity [2] | Kd [3] | Kd [4] | Ratio with respect to Non-Coating (CRD1 [5]) | Ratio with respect to Non-Coating (CRD1-2 [6]) | Ratio with respect to Non-Coating (CRD2-4 [7]) | Ratio with respect to Non-Coating [8] | Ratio with respect to Non-Coating (CRD2-3 [9]) | Ratio with respect to Non-Coating (CRD3-4 [10]) | Ratio with respect to Non-Coating (CRD1-3 [11]) | ELISA color development level (CRD1 [12]) | ELISA color development level (CRD1-2 [13]) | ELISA color development level (CRD2-4 [14]) | ELISA color development level [15] | ELISA color development level (CRD2-3 [16]) | ELISA color development level (CRD3-4 [17]) | ELISA color development level (CRD1-3 [18]) | Binder
1 | 10.9 fold (mIgG1 = 1) | 622 fold (mIgG1 = 1) | 25.8 nM | 0.338 nM | – | – | – | – | – | – | – | – | – | – | – | – | – | – | H237-MB492/MRAL-k0 (antibody, mouse IgG1, kappa, Mouse IgG1 constant region variant MB492 (T230E, V231P, P232N, S238E, S239D, N324D, as described for 1D8VH-MB492); copies: 2 + 2) heavy: QVQLQESGPGLVKPSETLSLTCAVSGHSISHDHAWSWVRQPPGEGLEWIGFISYSGITNYNPSLQGRVTISRDNSKNTLYLQMNSLRAEDTAVYYCARSLARTTAMDYWGEGTLVTVSSAKTTPPSVYPLAPGSAAQTNSMVTLGCLVKGYFPEPVTVTWNSGSLSSGVHTFPAVLQSDLYTLSSSVTVPSSTWPSETVTCNVAHPASSTKVDKKIVPRDCGCKPCICEPNEVEDVFIFPPKPKDVLTITLTPKVTCVVVDISKDDPEVQFSWFVDDVEVHTAQTQPREEQFNSTFRSVSELPIMHQDWLNGKEFKCRVDSAAFPAPIEKTISKTKGRPKAPQVYTIPPPKEQMAKDKVSLTCMITDFFPEDITVEWQWNGQPAENYKNTQPIMDTDGSYFVYSKLNVQKSNWEAGNTFTCSVLHEGLHNHHTEKSLSHSPGK light: not shown
2 | – | – | – | – | 35.7 | 52.7 | 2 | 54.6 | 1.8 | 1.5 | 47.5 | 1.75 | 2.58 | 0.097 | 2.67 | 0.089 | 0.074 | 2.33 | B (antibody, human IgG1, kappa, V domains shown, also called Control B) VH: QVQLQQWGAGLLKPSETLSLTCAVYGGSFSGYYWSWIRQSPEKGLEWIGEINHGGYVTYNPSLESRVTISVDTSKNQFSLKLSSVTAADTAVYYCARDYGPGNYDWYFDLWGRGTLVTVSS VL: EIVLTQSPATLSLSPGERATLSCRASQSVSSYLAWYQQKPGQAPRLLIYDASNRATGIPARFSGSGSGTDFTLTISSLEPEDFAVYYCQQRSNWPPALTFGGGTKVEIKR
